This series has as its target σ70, native, untagged (pLN12) (UniProt P00579).

Chain of σ70, native, untagged (pLN12) (P00579 whole entry): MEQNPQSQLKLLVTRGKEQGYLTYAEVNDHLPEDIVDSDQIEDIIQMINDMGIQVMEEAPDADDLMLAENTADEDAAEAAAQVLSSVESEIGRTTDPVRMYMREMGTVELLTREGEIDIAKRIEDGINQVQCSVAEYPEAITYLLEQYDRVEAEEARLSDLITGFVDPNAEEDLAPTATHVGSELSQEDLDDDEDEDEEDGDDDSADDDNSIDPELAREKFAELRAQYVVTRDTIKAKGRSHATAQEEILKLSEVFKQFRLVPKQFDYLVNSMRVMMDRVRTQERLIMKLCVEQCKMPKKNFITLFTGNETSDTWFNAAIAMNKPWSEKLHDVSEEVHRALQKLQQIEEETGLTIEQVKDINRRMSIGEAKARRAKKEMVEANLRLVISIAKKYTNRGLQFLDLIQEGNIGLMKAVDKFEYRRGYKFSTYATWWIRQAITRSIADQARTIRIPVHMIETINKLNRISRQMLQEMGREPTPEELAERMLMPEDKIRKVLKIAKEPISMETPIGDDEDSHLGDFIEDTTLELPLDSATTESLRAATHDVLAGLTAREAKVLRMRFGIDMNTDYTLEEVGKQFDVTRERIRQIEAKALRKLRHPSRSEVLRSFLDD

As for “β′ 1-1407 wild type with C-terminal His6 (pTA577)”, the “Growth at 42° C. with plasmid β′ as sole source of β′ (strain RL602)” value is “+”.
